Laboratory results reported in publication PMC12409433.

Experiments:
[1] = target: Klebsiella pneumoniae N-acetylglucosamine-6-phosphate deacetylase (NagA) (Klebsiella pneumoniae); experiment: SEC-MALS; Superdex 200 Increase 10/300 GL, 0.5 ml/min, 20°C, DAWN-Treos detector; BSA for calibration
[2] = target: Klebsiella pneumoniae N-acetylglucosamine-6-phosphate deacetylase (NagA) (Klebsiella pneumoniae); experiment: SEC; Superdex 200 Increase 10/300 GL, 20 mM Tris-HCl pH 8.0, 150 mM NaCl; apparent mass by calibration with molecular weight standards

stoichiometry N [1]: 4
stoichiometry N [2]: 4
Substance: Klebsiella pneumoniae N-acetylglucosamine-6-phosphate deacetylase (NagA) (enzyme)
